Test results reported in publication PMC5643561, “Zdhhc13-dependent Drp1 S-palmitoylation impacts brain bioenergetics, anxiety, coordination and motor skills” (Scientific Reports, 2017).

B1: Zdhhc13, wild type, recombinant (mouse sequence) (enzyme, UniProt Q9CWU2 1-622, looked up)
chain: MEGPGLGSQCRNHSHGSHVPGFGRHGICVHENKELAKAKEILPLIEDSSNCDIVKATQYGIFERCKELVEAGYDVRQPDRENVSLLHWAAINNRLELVKFYISKGAVIDQLGGDLNSTPLHWAIRQGHLPMVILLLQHGADPTLIDGEGFSSIHLAVLFQHMPIIAYLISKGQSVNMTDVNGQTPLMLSAYKVIGPEPTGFLLKFNPSLSVVDKTHQNTPLHWAVAAGNVSAVDKLLEAGSSLDIRNAKGETPLDMALQSKNQLISHMLRTEAKMRANKQFRLWRWLHKCELFLLLILSMITLWAVGYILDFNSDSWLLKGCLLVALFFLTSLFPRFLVGYKNLVYLPTVFLLSSIFWIFMTWFILFFPDTAGSPLYFAFIFSIMAFLYFFYKTWATDPGFTKASEEERKVNIVTLAETGSLDFRTFCTSCLIRKPLRSLHCHVCNSCVARFDQHCFWTGRCIGFGNHHHYIFFLLSLSMVCDWIIYGSFVYWSNHCATTFKEDGLWTYLNQIVACSPWVLYIFMLAAFHFSWSTFLLINQLFQIAFLGLTSHERISLLKQSRHMKQTLSLRKTPYNLGFTQNLADFFQCGCFGLVKPCIIDWTSQYTMVFHPAKEKVLRSV
notes: Zdhhc13, mouse, UniProtKB Q9CWU2; also called WT Zdhhc13; full length GST-tagged Zdhhc13; source: purified recombinant (culture supernatant)
B2: Zdhhc13 L203X, truncated form, recombinant (mouse sequence) (domain or fragment, UniProt Q9CWU2 1-202, looked up)
chain: MEGPGLGSQCRNHSHGSHVPGFGRHGICVHENKELAKAKEILPLIEDSSNCDIVKATQYGIFERCKELVEAGYDVRQPDRENVSLLHWAAINNRLELVKFYISKGAVIDQLGGDLNSTPLHWAIRQGHLPMVILLLQHGADPTLIDGEGFSSIHLAVLFQHMPIIAYLISKGQSVNMTDVNGQTPLMLSAYKVIGPEPTGFL
notes: Zdhhc13, mouse, UniProtKB Q9CWU2; naturally occurring nonsense mutation L203X (premature stop codon at codon 203), so the chain ends at residue 202; also called L203X Zdhhc13; truncated Zdhhc13; source: purified recombinant (culture eluate)

Target: T1, Drp1, recombinant, purified (Novus Biologicals # H00010059-P01) (UniProt O00429 1-736)
T1 construct: Drp1 (dynamin-related protein 1); The methods call Drp1 GST-tagged and immobilised; The results describe it as untagged analyte at 56, 167 and 500 nM; also called GST-tagged recombinant, purified Drp1; recombinant Drp1; source: bought: Novus Biologicals, # H00010059-P01
Assay: BLI; Octet RED384 (ForteBio), anti-GST biosensor. Methods: GST-Drp1 immobilised, WT or L203X Zdhhc13 in solution. Results: GST-Zdhhc13 captured, Drp1 at 56, 167 and 500 nM.
Conditions: both partners purified

T1 sequence (O00429 whole entry): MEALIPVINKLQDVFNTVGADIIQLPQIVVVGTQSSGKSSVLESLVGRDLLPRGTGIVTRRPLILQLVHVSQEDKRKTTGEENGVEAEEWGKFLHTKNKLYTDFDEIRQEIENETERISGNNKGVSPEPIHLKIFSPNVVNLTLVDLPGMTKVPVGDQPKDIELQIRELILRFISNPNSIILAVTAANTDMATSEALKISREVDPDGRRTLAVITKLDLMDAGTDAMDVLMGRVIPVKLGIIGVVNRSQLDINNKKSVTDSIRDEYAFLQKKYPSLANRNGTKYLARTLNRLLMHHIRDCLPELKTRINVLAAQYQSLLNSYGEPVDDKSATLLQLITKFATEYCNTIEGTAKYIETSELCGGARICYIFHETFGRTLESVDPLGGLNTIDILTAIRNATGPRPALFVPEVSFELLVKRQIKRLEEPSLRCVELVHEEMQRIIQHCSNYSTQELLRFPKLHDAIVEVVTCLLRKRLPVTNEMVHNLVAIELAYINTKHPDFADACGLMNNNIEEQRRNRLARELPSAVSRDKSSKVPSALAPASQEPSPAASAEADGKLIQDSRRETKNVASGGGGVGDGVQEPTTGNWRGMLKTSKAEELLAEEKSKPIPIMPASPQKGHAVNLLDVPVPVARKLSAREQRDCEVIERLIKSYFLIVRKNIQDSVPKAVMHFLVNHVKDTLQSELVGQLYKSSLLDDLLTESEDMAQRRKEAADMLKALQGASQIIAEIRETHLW

Row | Binder | Kd [nM] | koff [s⁻¹] | kon [M⁻¹ s⁻¹]
1 | B1 | 560 | 0.046 | 82000
2 | B2 | 88 | 0.0018 | 21000
